Source: article PMC3460959
Like-named read-outs stand apart in the source and are kept apart here.

What was measured:
[1] = target: Substance P (FAM-SP) (Homo sapiens), P20366
[2] = target: Substance P (FAM-SP) (Homo sapiens), P20366; remark: listed apart in the source

Sequence of Substance P (FAM-SP) (Homo sapiens), P20366 (P20366 whole entry, looked up): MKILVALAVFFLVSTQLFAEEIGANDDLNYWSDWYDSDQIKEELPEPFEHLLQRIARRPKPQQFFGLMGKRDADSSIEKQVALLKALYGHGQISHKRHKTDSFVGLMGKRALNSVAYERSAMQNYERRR

Kd [1]: 34 nM
Kd [2]: 83 nM
B1: Neurokinin 1 receptor (NK1R), P25103 (protein)
chain: MDNVLPVDSDLSPNISTNTSEPNQFVQPAWQIVLWAAAYTVIVVTSVVGNVVVMWIILAHKRMRTVTNYFLVNLAFAEASMAAFNTVVNFTYAVHNEWYYGLFYCKFHNFFPIAAVFASIYSMTAVAFDRYMAIIHPLQPRLSATATKVVICVIWVLALLLAFPQGYYSTTETMPSRVVCMIEWPEHPNKIYEKVYHICVTVLIYFLPLLVIGYAYTVVGITLWASEIPGDSSDRYHEQVSAKRKVVKMMIVVVCTFAICWLPFHIFFLLPYINPDLYLKKFIQQVYLAIMWLAMSSTMYNPIIYCCLNDRFRLGFKHAFRCCPFISAGDYEGLEMKSTRYLQTQGSVYKVSRLETTISTVVGAHEEEPEDGPKATPSSLDLTSNCSSRSDSKTMTESFSFSSNVLS
